# Results from patent US20190248902A1 (published 2019).
# T1: recombinant, soluble human ASGR-1 (human, UniProt P07306 62-291)
# T1 construct: biotinylated in the binning assay; also called soluble huASGR-1; Soluble ASGR-1 (Amgen)
# T1 sequence: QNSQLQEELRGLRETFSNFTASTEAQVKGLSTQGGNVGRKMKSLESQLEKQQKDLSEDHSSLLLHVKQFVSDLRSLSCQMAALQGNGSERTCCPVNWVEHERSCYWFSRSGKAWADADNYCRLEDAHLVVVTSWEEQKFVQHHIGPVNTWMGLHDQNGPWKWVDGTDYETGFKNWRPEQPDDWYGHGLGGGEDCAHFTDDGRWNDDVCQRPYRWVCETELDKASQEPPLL
# Columns and labels:
# [1] = biological target: T1, recombinant, soluble human ASGR-1; test: Octet BLI dissociation, pH 7.4 minus calcium
# Method: (§1) The relative dissociation of ASGR-1 from antibodies was measured using a label-free assay on an OctetHTX instrument (Fortebio). Antibody samples were captured on anti-HuFc kinetic biosensors (ForteBio cat #18-5064) at 5 ug/mL in assay buffer (10 mM Tris, 0.1% Triton, 150 mM NaCl, 1 mg/mL BSA, 1 mM CaCl2, pH7.4) for three minutes. A one minute baseline stabilization step was performed in assay buffer. Soluble ASGR-1 (Amgen) at 6 ug/ml in assay buffer was added and association to the antibodies was monitored for two minutes. Subsequent dissociation of ASGR-1 from the antibodies was performed by incubating the ASGR-1-mAb complexes for 10 minutes under each of the following conditions:
# (§2) The binding signal at the end of the 2 minute association phase for each dissociation experiment was set to 100% and used to represent the maximal level of ASGR-1 binding. After 1 minute of dissociation, the percentage of ASGR-1 remaining bound was calculated. The lower the percent remaining at a given time point indicates increased levels of dissociation in response to the test conditions (ie. different pH and/or calcium concentrations). The change in the percentage of ASGR-1 remaining bound in response to each test condition relative to the percent remaining in the control conditions (ie. pH 7.4+calcium) was determined. Cut-offs for an antibody to be categorized as being sensitive to a particular condition were set to >10% (ie. if >10% of the ASGR-1 dissociates from the antibody under a particular test condition compared to control condition, it was deemed sensitive to that condition). The analysis was done using the 1 minute dissociation time point (except for mAb 149A1 which was binned based on the 4 minute dissociation time point). Using this analysis, the ASGR-1-binding, receptor-ligand blocking antibodies were separated into groups according to their dissociation profiles in response to pH and calcium (Table 7.3). Antibodies belonging to each category were observed.
# [2] = biological target: T1, recombinant, soluble human ASGR-1; test: Octet BLI dissociation, pH 5.6 plus calcium
# Method: as §1, §2
# [3] = biological target: T1, recombinant, soluble human ASGR-1; test: Octet BLI dissociation, pH 5.6 minus calcium
# Method: as §1, §2
binder,measurement,setting,value
"177D2 (antibody, V domains shown, hybridoma mAb) VH: QVQLVESGGGVVQPGRSLRLSCAASGFTFSSYGMDWVRQAPGKGLEWVAIIWFDGSNKYYADSVKGRFTISRDNSKNTLYLQMNSLRAEDTAVYYCARAYCGGDCYFPHLHYYGMDVWGQGTTVTVSS VL: not shown",% Change Compared to pH 7.4 + Calcium,[1],3%
same,% Change Compared to pH 7.4 + Calcium,[2],2%
same,% Change Compared to pH 7.4 + Calcium,[3],10%
"154F4 (antibody, V domains shown, hybridoma mAb) VH: QVQLVESGGGVVQPGRSLRLSCAASGFTFSSYGMHWVRQAPGKGLEWVAVIWYDGSNKYYADSVKGRFTISRDNSKNTLYLQMNSLRAEDTAVYYCAREDSYCSGTSCPYYYYYGMDVWGQGTTVTVSS VL: SYELTQPPSVSVSPGQTASITCSGDKLGNKYVCWYQQKPGQSPVEVIYKDSKRPSGIPERFSGSNSGNTGTLTISGTQAMDEADYYCQAWDNSTLVFGGGTKLTVL",% Change Compared to pH 7.4 + Calcium,[1],10%
same,% Change Compared to pH 7.4 + Calcium,[2],41%
same,% Change Compared to pH 7.4 + Calcium,[3],67%
"159H8 (antibody, V domains shown, hybridoma mAb) VH: QVQLVESGGGVVQPGRSLRLSCAASGFTFSTYGMHWVRQAPGKGLEWVAVIWYDGSNKYYADSVKGRFTISRDNSKNTLYLQMNSLRAEDTAVYYCARDRVSCSSTSCPYYYYYGMDVWGQGTTVTVSS VL: SYELTQPPSVSVSPGQTASITCSGDKLGDKYVCWYQQKPGQSPVLVIYQDRKRPSGIPERFSGSNSGNTATLTISGTQALDEADYYCQAWGNSSFVVFGGGTKLTVL",% Change Compared to pH 7.4 + Calcium,[1],6%
same,% Change Compared to pH 7.4 + Calcium,[2],10%
same,% Change Compared to pH 7.4 + Calcium,[3],26%
"27E7 (antibody, V domains shown, hybridoma mAb) VH: QVQLVESGGGVVQPGRSLRLSCAASGFTFSSYGMHWVRQAPGKGLEWVAVIWYDGSNKYYADSVKGRFTISRDNSKNTLYLQMNSLRAEDTAVYYCAREDSYCSSTSCPYYYYYGMDVWGQGTTVTVSS VL: SYELTQPPSVSVSPGQTASITCSGDKLGNKYACWYQQKPGQSPVEVIYQDSKRPLGIPERFSGSNSGNTATLTISGTQAMDEADYYCQAWDSSTVVFGGGTKLTVL",% Change Compared to pH 7.4 + Calcium,[1],20%
same,% Change Compared to pH 7.4 + Calcium,[2],35%
same,% Change Compared to pH 7.4 + Calcium,[3],46%
"160B12 (antibody, V domains shown, hybridoma mAb) VH: QVQLVESGGGVVQPGRSLRLSCAASGFTFSSYGMHWVRQAPGKGLEWVAVIWYDGSNKYYADSVKGRFTISRDNSKNTLYLQMNSLRAEDTAVYYCARDRVSCSSTSCPYYYYYGMDVWGQGTTVTVSS VL: SDELTQSPSVSVSPGQTASITCSGDKLGDKYVCWYQQKPGQSPVLVIYQDSKRPSGIPERFSGSNSGNTATLTISGTQALDEADYYCQAWGNSSFVVFGGGTKLTVL",% Change Compared to pH 7.4 + Calcium,[1],6%
same,% Change Compared to pH 7.4 + Calcium,[2],8%
same,% Change Compared to pH 7.4 + Calcium,[3],22%
"5E5 (antibody, V domains shown, hybridoma mAb) VH: QVQLVESGGGVVQPGRSLRLSCAASGFTFSNYVMHWVRQAPGKGLEWVAVIWYDGSNKYYADSVKGRFTISRDNSKNTLYLQMNSLRAEDTAVYYCTREVYSSGWYDYGMDVWGQGTTVTVSS VL: DIQMTQSPSSLSASVGDRVTITCRASQGIRNDLGWYQQKPGKAPKRLIYAASSLQSGVPSRFSGSGSGTEFTLTISSLQPEDFATYYCLQHYSYPRTFGQGTKVEVK",% Change Compared to pH 7.4 + Calcium,[1],7%
same,% Change Compared to pH 7.4 + Calcium,[2],18%
same,% Change Compared to pH 7.4 + Calcium,[3],42%
"29E2 (antibody, V domains shown, hybridoma mAb) VH: QVQLVESGGGVVQPGRSLRLSCAASGFTFSNCVMHWVRQAPGKGLEWVAVIWYDGSNKYYADSVKGRITISRDNSKNTLYLQMNSLRAEDTAVYYCAREEYSSGWYDYGMDVWGQGTTVTVSS VL: DIQMTQSPSSLSASVGDRVTITCRASQAIRNDLGWYQQRPGKAPKRLIYAASSLQSGVPSRFSGSGSGTEFILTISSLQPEDFATYYCLQHYNYPRSFGQGTKLEIK",% Change Compared to pH 7.4 + Calcium,[1],5%
same,% Change Compared to pH 7.4 + Calcium,[2],25%
same,% Change Compared to pH 7.4 + Calcium,[3],38%
"45B4 (antibody, V domains shown, hybridoma mAb) VH: QVQLVESGGGVVQPGRSLRLSCAASGFTFSDCVMHWVRQAPGKGLEWVAVIWYDGSNKYYADSVKGRFTISRDNSKNTLYLQMNSLRAEDTAVYYCARERYSSGLYDYGMDVWGQGTTVTVSS VL: DIQMTQSPSSLSASVGDRVTFTCRASQGIRDDLGWYQQKPGKAPKRLIYAASSLQSGVPSRFSGSGSGTEFTLTISSLQPEDFATYYCLQHYSYPRTFGQGTKVEIK",% Change Compared to pH 7.4 + Calcium,[1],4%
same,% Change Compared to pH 7.4 + Calcium,[2],10%
same,% Change Compared to pH 7.4 + Calcium,[3],23%
"7G4 (antibody, V domains shown, hybridoma mAb) VH: QVQLVESGGGVVQPGRSLRLSCAASGFTFNNYVMHWVRQAPGKGLEWVAVIWYDGSNKYYADSVKGRFTISRDNSKNTLYLQMTSLRAEDTAVYYCAREKYSSNWYDYGMDVWGQGTTVTVSS VL: DIQMTQSPSSLSASVGDRVTITCRASQGIRNDLGWYQQRPGKAPKRLIYAASSLQSGVPSRFSGSGSGTEFTLTISSLQPEDSATYYCLHQYSYPRTFGQGTKVEIK",% Change Compared to pH 7.4 + Calcium,[1],2%
same,% Change Compared to pH 7.4 + Calcium,[2],1%
same,% Change Compared to pH 7.4 + Calcium,[3],7%
"32D6 (antibody, V domains shown, hybridoma mAb) VH: QVQLVESGGGVVQPGRSLRLSCAASGFTFSSYGMHWVRQAPGKGLEWVTVIWHDGSNAYYADSVKGRFTISRDNSKNTLYLQMNSLRAEDTAVYYCARENSSSYYFDYWGQGTLVTVSS VL: DIQMTQSPSSLSTSVGDRVTITCRASQNIISYLNWYQQKPGKAPKLLMYVASRLQSGVPSRFSGSGSGTDFTLTISSLQAEDFATYYCQQSYSTPYTFGGGTKVAIK",% Change Compared to pH 7.4 + Calcium,[1],26%
same,% Change Compared to pH 7.4 + Calcium,[2],33%
same,% Change Compared to pH 7.4 + Calcium,[3],55%
"175D10 (antibody, V domains shown, hybridoma mAb) VH: QVQLVQSGAEVKKPGASVKVSCKASGYTFTNYDLNWVRQATGQGLEWMGWMHPNSGNTGYAQKFQGRVTMTRNTSISTVYMELSSLRSEDTAVYYCAYSSGWYYFDYWGQGTLVTVSS VL: not shown",% Change Compared to pH 7.4 + Calcium,[1],4%
same,% Change Compared to pH 7.4 + Calcium,[2],-3%
same,% Change Compared to pH 7.4 + Calcium,[3],2%
"25A4 (antibody, V domains shown, hybridoma mAb) VH: QVLLVQSGAEVKRPGASVKVSCKASGYTFTNYDINWVRQATGQGLEWMGWMYPNSGNTGYAQKFQGRVTMTRNTSISTAYMELSSLRSEDTAVYYCASSSGWYYFDYWGQGTLVTVSS VL: DIVMTQFPDSLAVSLGERATIKCKSSQSVLYSSHNNNYLAWYQQKPGQPPKLLLYWASTRESGVPDRFSGSGSGTEFTLTISSLEAEDVAVYYCQQYYSTPPTFGQGTKVEIK",% Change Compared to pH 7.4 + Calcium,[1],2%
same,% Change Compared to pH 7.4 + Calcium,[2],-3%
same,% Change Compared to pH 7.4 + Calcium,[3],-1%
"26C4 (antibody, V domains shown, hybridoma mAb) VH: QVQLVQSGAEVKKPGASVKVSCKASGYTFTNYDINWVRQASGQGLEWMGWMNPNSGNTGYAQRFQGRVTMTRNTSINTAYMELSSLRSEDTAVYYCASSSGWYYFDYWGQGTLVTVSS VL: not shown",% Change Compared to pH 7.4 + Calcium,[1],3%
same,% Change Compared to pH 7.4 + Calcium,[2],2%
same,% Change Compared to pH 7.4 + Calcium,[3],2%
"29H8 (antibody, V domains shown, hybridoma mAb) VH: QVQLVQSGAEVQKPGASVKVSCKASGYTFTNYDINWVRQATGQGLEWMGWMNPNSGNTGYAQRFQGRVTMTRNTSISAAYMELSSLRSEDTAVYYCASSSGWYYFDYWGQGTLVTVSS VL: not shown",% Change Compared to pH 7.4 + Calcium,[1],2%
same,% Change Compared to pH 7.4 + Calcium,[2],-2%
same,% Change Compared to pH 7.4 + Calcium,[3],2%
